{"source": "paper PMC10726971", "about": "(Nature chemical biology, 2023)", "proteins": {"B1": {"name": "human FUT9 soluble catalytic domain (residues 39-359) (enzyme, UniProt Q9Y231 39-359, looked up)", "chain": "SPMESASSVLKMKNFFSTKTDYFNETTILVWVWPFGQTFDLTSCQAMFNIQGCHLTTDRSLYNKSHAVLIHHRDISWDLTNLPQQARPPFQKWIWMNLESPTHTPQKSGIEHLFNLTLTYRRDSDIQVPYGFLTVSTNPFVFEVPSKEKLVCWVVSNWNPEHARVKYYNELSKSIEIHTYGQAFGEYVNDKNLIPTISTCKFYLSFENSIHKDYITEKLYNAFLAGSVPVVLGPSRENYENYIPADSFIHVEDYNSPSELAKYLKEVDKNNKLYLSYFNWRKDFTVNLPRFWESHACLACDHVKRHQEYKSVGNLEKWFWN", "modifications": "N-glycans cleaved with EndoF1; a tetrasaccharide (Manα1,3-Manβ1,4-GlcNAcβ1,4-GlcNAcβ-) is left on Asn153"}}, "biological_target": "the molecule itself", "test": "SEC-MALS", "data": [{"protein": "B1", "values": [{"measurement": "stoichiometry N", "value": 2}]}]}
